Tests used:
moFcgRIIb = assay: -; reported
moFcgRIV [1] = assay: -; reported
moFcRn [2] = assay: -; reported
moFcgRIII = assay: -; reported
moFcgRIV [3] = assay: BLI
moFcRn [4] = assay: BLI

Kd (moFcgRIIb) [nM]	Kd (moFcgRIV [1]) [nM]	Kd (moFcRn [2]) [nM]	Kd (moFcgRIII) [nM]	Kd (moFcgRIV [3]) [nM]	Kd (moFcRn [4]) [nM]	Substance
700	170	230	1300	–	–	hIgG3
2390	34.5	490	1460	–	–	mIgG2a
7900	–	63	9700	–	–	hIgG2
–	–	140	–	–	–	mIgG3
11000	26000	116	21000	–	–	hIgG4
1100	280	72	9300	–	–	hIgG1
301	–	1160	3200	–	–	mIgG1
–	–	–	–	701	12.8	LJM716 hIgG1
448	59	545	1560	–	–	mIgG2b
–	–	–	–	–	6.69	Seribantumab hIgG2
